B1: TPR t1 (parent)
chain: GACCAAUCUGCCCUCAGAGCUCGAGAACAUCUUCGGAUGCAGAGGAGGCAGGCUUCGGUGGCGCGAUAGCGCCAACGUCCUCAACCUCCAAUGCAUCCCACCACAUGAUGAUGCCUGAAGAGCCUUGGUUUUUUG

In the series the parent is B1. Put plainly: polymerase ribozyme fitness, log enrichment relative to wild type (log ratio); higher = more active; in vitro selection for triplet polymerase activity. An outline of the steps: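 A heterodimeric triplet polymerase ribozyme had each of its subunits mutagenized by PCR into a library, which was transcribed. One round of in vitro selection, done in triplicate, annealed each library with a biotinylated primer, its partner subunit and triplets, then incubated it frozen at −7 °C before gel excision of extended constructs, streptavidin-bead capture and RT-PCR. Fitness is the logarithm of genotype enrichment relative to wild-type enrichment, based on Illumina sequencing of inputs and outputs and inverse-variance-weighted replicate averages. A base-2 logarithm is used, and genotypes were kept only with ≥10 input reads and ≥1 read per output.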
For C40U G120U, the “polymerase ribozyme fitness (log ratio)” value was -0.132. In the case of U38A C53G C88G G120A C123G, the “polymerase ribozyme fitness (log ratio)” value was -1.3. The result for A2U G10U C115U reads -3.43; that for C49U G61A C79U C97G, -5.31; that for A6U A18U C76U, -2.81. The result for C8A G44A A105G reads -3.51; that for C79U A119U, -0.48; that for A18G G61C C114U, -5.18. The result for A66U C85G reads -1.65; that for U7C G36U G47C G48C, -2.23. Regarding G44C C62A U132C, the “polymerase ribozyme fitness (log ratio)” value was -2.12.

In the case of C98U G113U, the “polymerase ribozyme fitness (log ratio)” value was -3.5.

For C72G U106A U129A, the “polymerase ribozyme fitness (log ratio)” value was -1.25. In the case of C13A A37G it was -2.27; in that of U9G G48U C49U C73G G120U, 0.0812. In the case of U112G U130C it was 0.265; in that of U9G G61A C76G, -4.18; in that of A41G G42A, -2.57. In the case of C4A G63U A119G it was -0.807; in that of G113A C124A, -1.44. As to C11A A118G, the “polymerase ribozyme fitness (log ratio)” value is -1.55. On to A43C C53G G61U G128A, for which the “polymerase ribozyme fitness (log ratio)” value was -4.58. The result for C8U C49U G61A reads 0.346; that for G51A C64G C101G G113A C123A, -6.84. The result for G52A U78A C115A reads 0.0466. In the case of C20A C56A C82U it was -3.22; in that of U30C G63U C85U, -5.85; in that of U54C G122A, -0.596.

For G63A C104A, the “polymerase ribozyme fitness (log ratio)” value is -2.41. The result for C56U C114A reads -1.27. The result for C3U C72U C76U C85U U116G C124U U129C reads -6.12; that for U78C C79U U106C, 0.0469. In the case of C12G C62G C82A it was -1.16; in that of G60C G117C, -4.28. As to C34A A37G C53U U78G, the “polymerase ribozyme fitness (log ratio)” value was -2.19. Take A6G G36A: the “polymerase ribozyme fitness (log ratio)” value was -0.889. In the case of G39A G69A it was -3.04. In the case of C15U G61C C104A C124U it was -3.58; in that of C53U G93U, -0.832. The result for A2U C70U G128C reads -2.25; that for C115U G135U, -1.91; that for A6U C12G G45C, -1.57.

For the variant G35U C49A C64U, the “polymerase ribozyme fitness (log ratio)” value is -6.12. In the case of A2U A5G U9G A41C it was -2.01; in that of U7C U14A C22U G47U C56G G60A G120U, -7.5; in that of A50U G58A G63U G113C U129G, -7.01. For the variant A2U C12U U78C U87G U112G, the “polymerase ribozyme fitness (log ratio)” value was -3.07. The result for C12U C34U C72A U81C C102U U109G reads -5.97; that for C8U U54A, 0.528; that for C56G G61U, -2.32. With A16G G60A G120C, the “polymerase ribozyme fitness (log ratio)” value is -0.306.

A50G C73A C82U: the “polymerase ribozyme fitness (log ratio)” value was -0.0319. The result for G47C C73U reads -1.61; that for A5C C12A C72U G113C, -3.72; that for G52A G77U G117U, -4.34.

As to A83C C101U, the “polymerase ribozyme fitness (log ratio)” value came to 0.114. With A18C C34U U112A A119G, the “polymerase ribozyme fitness (log ratio)” value was -6.08.

In the case of G93A G110A, the “polymerase ribozyme fitness (log ratio)” value was -1.24. As for A26U C49U U54C G93C, the “polymerase ribozyme fitness (log ratio)” value was -5.34. The result for A6C A29U G45A G113U reads -4.91. The result for G60C A84U reads -0.735; that for G69A U106C, -3.42.

For A5U G44C C70U A84C C104A G117C, the “polymerase ribozyme fitness (log ratio)” value is -7.15. As to C13A G44A, the “polymerase ribozyme fitness (log ratio)” value is -2.95. In the case of C12U G52U C53G G61C it was -4.41. In the case of G47C G77U C88A C97U G113C G117C it was -6.98. Consider C56A U87A U92A G120A A121U U131A, for which the “polymerase ribozyme fitness (log ratio)” value is -4.2. Turning to C4A A29G U30C A74C A121U, the “polymerase ribozyme fitness (log ratio)” value is -3.71.

Regarding U14G C15U A37U C56A A66C, the “polymerase ribozyme fitness (log ratio)” value was -5.37.

For the variant A2U G36C A74C, the “polymerase ribozyme fitness (log ratio)” value was -3.04. The result for A27G G39A C53A C85A C89A G113C reads -5.16; that for C49A C85U G113A A119C, -4.02; that for A66U A83G C86U, -2.39. The result for G36A G57A reads -1.38; that for A37C G61U, 0.0821; that for A18C C53G C76U, -3.42. With A2C G36C C62U, the “polymerase ribozyme fitness (log ratio)” value is -2.66. For the variant G36C G44C U81G A121C, the “polymerase ribozyme fitness (log ratio)” value is -3.56. In the case of C8U A37U C86A, the “polymerase ribozyme fitness (log ratio)” value was -0.897. The result for G47U U87G G120A reads -1.99; that for C8G C70G A100C C123A, -2.51. On to C8A C89A, for which the “polymerase ribozyme fitness (log ratio)” value is -1.24.

For the variant G60A C124U, the “polymerase ribozyme fitness (log ratio)” value was determined as 1.27.

Regarding U9C C34U G69U C72U C101A G117A U125A U130G, the “polymerase ribozyme fitness (log ratio)” value was -6.7. In the case of A50U C73U G117C C123A it was -5.84; in that of G10U G128U U132C, -0.604; in that of U38G C62U C86U C115A, -2.04. In the case of C11U C12U A29U G110U G122C C123A it was -0.893. The result for C79U G117A A119U reads -4; that for C73U C114A, -1.19; that for C3A G69U G71A A75U A103U C124G, -4.96. On to U54C G61C A75U, for which the “polymerase ribozyme fitness (log ratio)” value is 0.0964. In the case of A43U G47U A74U it was -2.98; in that of C12G C123A U126C, 0.201; in that of C8G U14A A29G C40G G44U G57C, -2.63. With C12A C15G C56G, the “polymerase ribozyme fitness (log ratio)” value was -2.69. A2G C11A G71U A90U U130A U133G: the “polymerase ribozyme fitness (log ratio)” value was -2.92. The result for G45A C49G U106C U112A reads -0.738; that for G63A U109G, -4.41; that for A5G U9C C124U, 1.89. In the case of C85A U87G G120U it was -0.802. In the case of C62U G135A it was -1.28. A6U A27G C82U G110U: the “polymerase ribozyme fitness (log ratio)” value is -2.67. As for G48A G71A, the “polymerase ribozyme fitness (log ratio)” value is -1.09. In the case of A37G G63U U81A it was -2.09; in that of U54G A105G U112A C123G C124A U132C, -2.09; in that of A68U U78C, -6.34.

For A6U A95C, the “polymerase ribozyme fitness (log ratio)” value was -0.905. In the case of C62A U96G, the “polymerase ribozyme fitness (log ratio)” value was -1.8. In the case of A24G it was -1.19. In the case of C3A C73G it was -1.48; in that of G60C C86U, 0.269; in that of A2U G135U, -1.94.

As to C8U G48U A50U C86U U96A, the “polymerase ribozyme fitness (log ratio)” value is -0.998. The result for C86G C102A reads -3.09; that for G42U G71A A100U, -4.8. For the variant G36U G42A, the “polymerase ribozyme fitness (log ratio)” value was -3.47. A27C C72U C124U: the “polymerase ribozyme fitness (log ratio)” value is -0.653. In the case of G36A A46C C104U U116A it was -3.8. In the case of G47A A90G A103C G120C, the “polymerase ribozyme fitness (log ratio)” value is -4.22.

Turning to G47U G63U, the “polymerase ribozyme fitness (log ratio)” value is -2.33. With C8A C11G A16U A43C U78C U125A, the “polymerase ribozyme fitness (log ratio)” value was -1.72.

On to C11A U33G G52U C56U C64G G120C, for which the “polymerase ribozyme fitness (log ratio)” value is -6.81.

As to U21C G63C, the “polymerase ribozyme fitness (log ratio)” value is -0.656.

Consider C53U C89A, for which the “polymerase ribozyme fitness (log ratio)” value is -1.29. In the case of A75G C102A it was -1.52; in that of U7C G42A C76U C101U G120C C123A, -3. In the case of C3A C34U C79U C114A C124G G128U it was -4.76. In the case of G44A G60A A68G C85U U106A U129C it was -5.96. As to U59C G69U U81A, the “polymerase ribozyme fitness (log ratio)” value is -1.48. Take C88U U129A: the “polymerase ribozyme fitness (log ratio)” value was -0.777. Consider A24G G71U U106A, for which the “polymerase ribozyme fitness (log ratio)” value was -2.23. The result for G44U C88A U133G reads -1.73; that for G35A G113C, -5.03; that for C72U A100U A108G, -1.87. The result for C12G C56G reads -1.05. Regarding G47A G69A, the “polymerase ribozyme fitness (log ratio)” value is -3.08.

Take C12A A41C U92G A111G: the “polymerase ribozyme fitness (log ratio)” value is -2.42. In the case of G35A G120C C124A it was -3.97.

Regarding A18U C70G, the “polymerase ribozyme fitness (log ratio)” value is -6.16. In the case of C56G A111U it was -2.49; in that of C79G C101U, -1.49; in that of U55A G77C C104A, -1.93.

Take G47U G48A A121U: the “polymerase ribozyme fitness (log ratio)” value is 1.01.

With C80A U87G, the “polymerase ribozyme fitness (log ratio)” value was -2.88. The result for C53G C86A A119G G120U reads -0.713; that for C11A G60U U87C U112C G117A U130C, -5.25.

Consider A24G C86U, for which the “polymerase ribozyme fitness (log ratio)” value is -2.07.

On to C85A G128U, for which the “polymerase ribozyme fitness (log ratio)” value is -4.02. As to U78A C79U, the “polymerase ribozyme fitness (log ratio)” value worked out at 0.293. For U7G G113A, the “polymerase ribozyme fitness (log ratio)” value is -0.761.

With A43C U54C G58A C86A, the “polymerase ribozyme fitness (log ratio)” value was -3.78. In the case of A43U A83U it was -1.8; in that of A43G G63A, -3.39; in that of G19C G44C C70A G93C C124G, -5.3.

With U78C C115A, the “polymerase ribozyme fitness (log ratio)” value was -0.63.

For G47C G110U, the “polymerase ribozyme fitness (log ratio)” value was -2.81. Take A50G C62A: the “polymerase ribozyme fitness (log ratio)” value is -0.949. In the case of C12U G42A C97U it was -3.11; in that of G52A C53U, -0.621; in that of A37U G113A C123U, -2.5.

In the case of C3G C11G G19U G120A, the “polymerase ribozyme fitness (log ratio)” value is -3.18. The result for A5C C56G C79A U106A reads -2.63; that for A50U A83G, -0.122; that for C3A G57C A90U C114A U132C, -3.92.

On to C13U C20A U21G A24C G71C U112C C123A, for which the “polymerase ribozyme fitness (log ratio)” value was -6.62. For G47C C79U G93U, the “polymerase ribozyme fitness (log ratio)” value is -3.38.

(Values after the RNAGym collection of RNA variant scans (doi:10.1073/pnas.2313332121).)
